Test system: N=C(N)NCCC[C@H](NC(=O)[C@H](Cc1ccccc1)NC(=O)[C@@H]1CCCN1C(=O)c1ccccc1)C(=O)Nc1ccc([N+](=O)[O-])cc1
Experiment: Km and vmax determination with substrate (Lineweaver-Burk), plasma kallikrein
Type: biochemical
Settings: other: plasma kallikrein; substrate concentration varied, enzyme constant; measured at 405 nm
Experimental: As is evident from equation (2) constants Km and k3 determine the activity of the enzyme substrate for a given enzyme. For determining these constants the following procedure is followed:
The enzyme and the substrate are mixed in a buffer solution, and the reaction is followed spectrophotometrically for 2 to 30 minutes. The concentration of substrate [S] is varied, whereas the enzyme concentration [E] is kept constant. If the extinction (OD) (= optical density) is plotted in a co-ordinate system as a function of time, a curve is obtained the tangent of which (difference in extinction per minute, Δ OD/minute, from which the quantity in μmoles of pNA/min (v) can be calculated) at time zero corresponds to the ideal course of the hydrolysis. By means of this tangent the initial rate of the hydrolysis can be determined.
If 1/v is plotted against 1/[S], a Lineweaver-Burk diagram (cf. "Kurzes Lehrbuch der Biochemie" by P. KARSON, Georg Thieme-Verlag, Stuttgart, 1967, p. 70) is obtained from which vmax and Km can be determined graphically.
Km and k3 = vmax /E were determined with N^α-Bz-Pro-Phe-Arg-pNA^. HCl (i.e. the substrate prepared according to Example 1) for plasma kallikrein, trypsin, plasmin and thrombin.

plasma kallikrein (Homo sapiens), sequence (chain, as listed by the source): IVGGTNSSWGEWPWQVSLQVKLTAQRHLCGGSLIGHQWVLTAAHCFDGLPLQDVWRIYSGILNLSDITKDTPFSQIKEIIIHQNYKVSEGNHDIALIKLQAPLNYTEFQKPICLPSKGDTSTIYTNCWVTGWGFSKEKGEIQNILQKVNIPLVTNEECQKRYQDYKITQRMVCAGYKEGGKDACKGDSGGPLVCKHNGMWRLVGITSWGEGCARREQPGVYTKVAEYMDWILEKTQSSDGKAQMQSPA

Substance: plasma kallikrein (Homo sapiens)
- Km: 282 µM

From patent US4016042A, “Substrate for the quantitative determination of enzymes” (Pentapharm A.G., priority 1974, dated 1977)
